Patent US20190032056, “STEM-LOOP COMPOSITIONS AND METHODS FOR INHIBITING FACTOR D” (Vitrisa Therapeutics, Inc., published 2019)

Target: complement Factor D (fD) in C1q-depleted human serum (Homo sapiens, UniProt P00746 SEQ:1-228)
Experiment: inhibition; hemolysis
Details: protein: extract; tags: endogenous fD, about 9.6 nM in 10% serum; hairpin

Sequence of complement Factor D (fD) in C1q-depleted human serum (P00746 26-253): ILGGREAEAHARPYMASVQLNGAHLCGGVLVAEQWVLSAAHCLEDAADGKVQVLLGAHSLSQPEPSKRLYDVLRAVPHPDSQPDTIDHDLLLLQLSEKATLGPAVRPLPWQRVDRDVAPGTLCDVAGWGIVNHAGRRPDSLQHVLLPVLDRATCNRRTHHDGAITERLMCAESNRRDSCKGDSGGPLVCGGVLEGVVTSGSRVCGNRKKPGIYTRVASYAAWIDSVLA

| Binder | IC50 [nM] |
| --- | --- |
| CAGCCGUGCUAGUAUUGGCAUUGGCUAGAAGUUAGGCUG (ssRNA, 2'-F G; 2'-OMe A,C,U; 5' C6NH2; 3' idT) [Aptamer 34] | 6.9 |
| CGACUUGCGGGUAUUGGCGAUGGCCCGAAGUUUGUCG (ssRNA, 2'-F G; 2'-OMe A,C,U; 5' C6NH2; 3' idT) [Aptamer 55] | ~10 |
| CAGCCAUGCAAGUAUUGGCUUAGGCUUGAAGUUCGGCUG (ssRNA, 2'-F G; 2'-OMe A,C,U; 5' C6NH2; 3' idT) [Aptamer 33] | 11 |
| CUGCCUUGCGGGUAUUGGCGUUGGCCCGAAGUUUGGCUG (ssRNA, 2'-F G; 2'-OMe A,C,U; 5' C6NH2; 3' idT) [Aptamer 38] | 5.5 |
| CUGCCUUGCGGGUAUUGGCGAUGGCCCGAAGUUUGGCUG (ssRNA, 2'-F G; 2'-OMe A,C,U; 5' C6NH2; 3' idT) [Aptamer 57] | ~10 |
| CCGACUUGCGGGUAUUGGCGUUGGCCCGAAGUUUGUCGG (ssRNA, 2'-F G; 2'-OMe A,C,U; 5' C6NH2; 3' idT) [Aptamer 59] | < 10 |
| CGCAUUGCUAGUAUUGGCUUAGGCUAGAAGUGUUGCG (ssRNA, 2'-F G; 2'-OMe A,C,U; 5' C6NH2; 3' idT) [Aptamer 40] | 5.8 |
| CGCCUUGCCAGUAUUGGCGAUGGCUGGAAGUUUGGCG (ssRNA, 2'-F G; 2'-OMe A,C,U; 5' C6NH2; 3' idT) [Aptamer 60] | < 10 |
| CCGCCUUGCGAGUAAUGGCGUAGGCUCGAAGUUGGGCGG (ssRNA, 2'-F G; 2'-OMe A,C,U; 5' C6NH2; 3' idT) [Aptamer 35] | 5.4 |
| CCGACUUGCCAGUGUUGGCUUUGGCUGGAAGUUUGUCGG (ssRNA, 2'-F G; 2'-OMe A,C,U; 5' C6NH2; 3' idT) [Aptamer 36] | 8.2 |
| CCGACUUGCCAGUAUUAGCUUAGGCUGGAAGUUUGUCGG (ssRNA, 2'-F G; 2'-OMe A,C,U; 5' C6NH2; 3' idT) [Aptamer 64] | ~100 |
| CCGACUUGCCAGUAUUGGCGAAGGCUGGAAGUUUGUCGG (ssRNA, 2'-F G; 2'-OMe A,C,U; 5' C6NH2; 3' idT) [Aptamer 71] | < 10 |
| CCGACUUGCCAGUAUUGGCGAUGGCUGGAAGUUUGUCGG (ssRNA, 2'-F G; 2'-OMe A,C,U; 5' C6NH2; 3' idT) [Aptamer 39] | 3.1 |
| CCGACUUGCCAGUAUUGGCCUAGGCUGGAAGUUUGUCGG (ssRNA, 2'-F G; 2'-OMe A,C,U; 5' C6NH2; 3' idT) [Aptamer 66] | ~100 |
| CCGACUUGCCAGUAUUGGCUCUGGCUGGAAGUUUGUCGG (ssRNA, 2'-F G; 2'-OMe A,C,U; 5' C6NH2; 3' idT) [Aptamer 72] | ~100 |
| CCGACUUGCCAGUAUUGGCUUAGGCUGGAAGUUUGUCGG (ssRNA, 2'-F G; 2'-OMe A,C,U; 5' C6NH2; 3' idT) [Aptamer 88] | < 10 |
| CCGACUUGCCAGUAUAGGCUCAGGCUGGAAGUUUGUCGG (ssRNA, 2'-F G; 2'-OMe A,C,U; 5' C6NH2; 3' idT) [Aptamer 62] | ~10 |
| CCGACUUGCCAGUAUUGGCGCAGGCUGGAAGUUUGUCGG (ssRNA, 2'-F G; 2'-OMe A,C,U; 5' C6NH2; 3' idT) [Aptamer 69] | < 10 |
| CCGACUUGCCAGUAUUGGCGCUGGCUGGAAGUUUGUCGG (ssRNA, 2'-F G; 2'-OMe A,C,U; 5' C6NH2; 3' idT) [Aptamer 68] | ~10 |
| CCGACUUGCGGGUAUUGGCGAUGGCCCGAAGUUUGUCGG (ssRNA, 2'-F G; 2'-OMe A,C,U; 5' C6NH2; 3' idT) [Aptamer 54] | ~10 |
